Among the data in the RNAGym collection of RNA variant scans (doi:10.7554/elife.80360) are self-cleavage values, retold here.

To fix the notation:
B1: CPEB3 Ribozyme (parent)
chain: GGGGGCCACAGCAGAAGCGUUCACGUCGCGGCCCCUGUCAGAUUCUGGUGAAUCUGCGAAUUCUGCUGU

Variants of B1 are the subject of the series. Put plainly: self-cleavage, relative activity (ratio to wild type); higher = more cleavage; co-transcriptional.
With G58C U61A, the self-cleavage came out at 0.877.

As to G58C U61G, the self-cleavage is 0.912.

For G56U G58A, the self-cleavage is 0.924.

With G56U G58C, the self-cleavage turned out to be 0.989.

G56U G58U: the self-cleavage worked out at 0.978.

For the variant U61C U64A, the self-cleavage turned out to be 0.322.

For U61C U64C, the self-cleavage came out at 0.31.

In the case of U61C U64G, the self-cleavage is 0.474.

For the variant A60C C66U, the self-cleavage came to 0.412.

Turning to A60C C66G, the self-cleavage turned out to be 0.456.

For A60G U62C, the self-cleavage was determined as 0.436.

As for A60G U62G, the self-cleavage turned out to be 0.687.

C57A U69A: the self-cleavage worked out at 0.377.

Consider C57A U69G, for which the self-cleavage worked out at 0.455.

For the variant C57A G68U, the self-cleavage was 0.394.

Consider C57A G68A, for which the self-cleavage was determined as 0.367.

Regarding U62A C63G, the self-cleavage worked out at 0.481.

In the case of U62A C63A, the self-cleavage amounted to 0.822.

A59U C66U: the self-cleavage was 0.775.

With A59G A60U, the self-cleavage came out at 0.352.

As to A59G A60G, the self-cleavage worked out at 0.533.

A59C U69C: the self-cleavage was determined as 0.934.

Consider A59C U69G, for which the self-cleavage stood at 0.824.

On to A59C U69A, for which the self-cleavage amounted to 0.813.

As for A59C U61C, the self-cleavage was determined as 0.446.

With U61G, the self-cleavage was 0.935.

Turning to U61A, the self-cleavage worked out at 0.96.

Take U61C: the self-cleavage is 0.88.

In the case of A59G U69G, the self-cleavage came to 1.07.

As for A59G U69A, the self-cleavage is 1.04.

In the case of U62A, the self-cleavage was 0.957.

In the case of U62C, the self-cleavage was 0.927.

With C57A U67G, the self-cleavage is 0.445.

With A59C U64A, the self-cleavage worked out at 0.471.

With A59C U64G, the self-cleavage was found to be 0.633.

In the case of C57U U67A, the self-cleavage worked out at 0.365.

Consider C57U U67C, for which the self-cleavage was determined as 0.465.

Turning to C57U U67G, the self-cleavage came to 0.509.

Regarding A60C G65C, the self-cleavage stood at 0.449.

With C57G U62A, the self-cleavage was 0.333.

For the variant U61A U64A, the self-cleavage came to 0.54.

Take U61G G65U: the self-cleavage is 0.483.

U61G G65A: the self-cleavage was determined as 0.672.

G56U G65C: the self-cleavage came to 0.506.

For the variant C57A A60C, the self-cleavage stood at 0.264.

Consider C57A A60U, for which the self-cleavage is 0.415.

G58C A59G: the self-cleavage amounted to 0.982.

Turning to G58C A59C, the self-cleavage turned out to be 0.636.

Regarding G58C A59U, the self-cleavage is 0.701.

For A59C A60C, the self-cleavage was 0.38.

A59C A60G: the self-cleavage was 0.535.

On to G58U U64C, for which the self-cleavage is 0.959.

Take G58U U64G: the self-cleavage was 0.971.

As to G58U U64A, the self-cleavage stood at 0.956.

Consider G58A G65A, for which the self-cleavage turned out to be 0.901.

On to U61C U62C, for which the self-cleavage was 0.479.

With C57U G65C, the self-cleavage was determined as 0.374.

As to C57U G65A, the self-cleavage came out at 0.357.

Regarding G58A A60C, the self-cleavage is 0.495.

On to G58A A60G, for which the self-cleavage stood at 0.83.

As to G58A A60U, the self-cleavage stood at 0.919.

With A59U G68C, the self-cleavage was 0.941.

With G58A U62C, the self-cleavage came out at 0.872.

For U61A U69A, the self-cleavage is 0.958.

In the case of U62A G68A, the self-cleavage was determined as 0.924.

Take U62A G68C: the self-cleavage is 0.949.

With U61A G68U, the self-cleavage worked out at 0.937.

Turning to U61A G68C, the self-cleavage came to 0.947.

As for U61A C63A, the self-cleavage amounted to 0.729.

Consider U61A C63U, for which the self-cleavage is 0.721.

Consider A60U C66U, for which the self-cleavage stood at 0.505.

As for G58C G65A, the self-cleavage worked out at 0.844.

G58C G65U: the self-cleavage stood at 0.842.

In the case of G58A U69G, the self-cleavage was determined as 1.02.

On to G58A U69A, for which the self-cleavage is 0.99.

Take C57A U61C: the self-cleavage was 0.273.

As for U61A U67G, the self-cleavage came out at 0.958.

Regarding U61A U67C, the self-cleavage came to 0.896.

In the case of U61A U67A, the self-cleavage worked out at 0.903.

Consider U61C G68A, for which the self-cleavage was determined as 0.924.

As for U61C G68C, the self-cleavage was 0.978.

As to G56U U62G, the self-cleavage stood at 0.563.

As to G56U U62C, the self-cleavage was determined as 0.67.

G56U U62A: the self-cleavage turned out to be 0.654.

Take A59U U62G: the self-cleavage turned out to be 0.394.

With A59U U62C, the self-cleavage amounted to 0.546.

With A59U U62A, the self-cleavage is 0.536.

As for C57A U64C, the self-cleavage was found to be 0.401.

Turning to C57A U64A, the self-cleavage came to 0.357.

As to U61C C66G, the self-cleavage amounted to 0.396.

Take U61C C66U: the self-cleavage came to 0.557.

Regarding U61C C66A, the self-cleavage worked out at 0.375.

For the variant G58A U61A, the self-cleavage was found to be 0.827.

Turning to G58A U61C, the self-cleavage worked out at 0.82.

As to G58A U61G, the self-cleavage amounted to 0.861.

Take G58U U62A: the self-cleavage was found to be 0.958.

As for G58U U62G, the self-cleavage was 1.01.

Consider G58U U62C, for which the self-cleavage worked out at 0.953.

Turning to C57A G65A, the self-cleavage came out at 0.346.

Turning to C57U A60U, the self-cleavage was 0.298.

As to C57U A60G, the self-cleavage is 0.39.

Regarding C57U A60C, the self-cleavage stood at 0.372.

A60U U67C: the self-cleavage amounted to 0.471.

On to A60U U67A, for which the self-cleavage worked out at 0.454.

For C57G U67C, the self-cleavage came to 0.428.

Regarding C57G U67A, the self-cleavage worked out at 0.325.

For the variant C57G U67G, the self-cleavage was determined as 0.489.

Consider C57G U64G, for which the self-cleavage is 0.394.

With C57G U64A, the self-cleavage stood at 0.349.

Turning to C57G U64C, the self-cleavage is 0.38.

Take A59G U67C: the self-cleavage is 0.976.

For the variant A59G U67G, the self-cleavage is 1.03.

As to A59G U67A, the self-cleavage stood at 0.991.

In the case of C57A C63A, the self-cleavage came out at 0.351.

For C57A C63G, the self-cleavage is 0.404.

In the case of C57A C63U, the self-cleavage worked out at 0.408.

For the variant C57A C66U, the self-cleavage was determined as 0.267.

Regarding C57A C66A, the self-cleavage amounted to 0.37.

In the case of C57A C66G, the self-cleavage turned out to be 0.373.

With G58A U64A, the self-cleavage was found to be 0.92.

G58A U64C: the self-cleavage worked out at 0.861.

With U62A U69A, the self-cleavage came to 0.942.

For the variant U62A U69G, the self-cleavage was 1.

With C57U G58U, the self-cleavage came to 0.42.

For the variant C57U G58C, the self-cleavage amounted to 0.451.

Consider C57U G58A, for which the self-cleavage was 0.289.

In the case of A60C U62G, the self-cleavage was 0.429.

As to A60C U64G, the self-cleavage turned out to be 0.333.

For the variant A60C U64A, the self-cleavage is 0.267.

On to G58C C66G, for which the self-cleavage was determined as 0.884.

For G58C C66A, the self-cleavage was found to be 0.818.

For U61G U69G, the self-cleavage was 0.999.

On to C57U U62A, for which the self-cleavage came out at 0.363.

C57U U62C: the self-cleavage is 0.41.

In the case of A59G G65U, the self-cleavage was 0.694.

With A59G G65C, the self-cleavage was found to be 0.512.

With A60U U64C, the self-cleavage turned out to be 0.445.

With G58U C66U, the self-cleavage amounted to 1.02.

G58U C66A: the self-cleavage came out at 0.928.

For the variant C57U A59G, the self-cleavage stood at 0.354.

Take C57U A59U: the self-cleavage came out at 0.256.

Consider G56U C66A, for which the self-cleavage is 0.447.

As for C57U C63A, the self-cleavage was 0.438.

For the variant C57U C63G, the self-cleavage stood at 0.397.

A60C U67C: the self-cleavage was determined as 0.313.

Turning to A60C U67G, the self-cleavage came out at 0.37.

For A60C U67A, the self-cleavage turned out to be 0.358.

Turning to A59C U62C, the self-cleavage stood at 0.407.

On to A59C U62G, for which the self-cleavage was 0.423.

For A60G U69G, the self-cleavage turned out to be 1.01.

In the case of A59U U69C, the self-cleavage came to 1.02.

C57U U61G: the self-cleavage amounted to 0.463.

For C57U U61C, the self-cleavage stood at 0.371.

As to A59U C63U, the self-cleavage stood at 0.734.

For A59U C63G, the self-cleavage was determined as 0.545.

As for C57G A59U, the self-cleavage is 0.388.

In the case of C57G A59G, the self-cleavage came to 0.375.

Turning to A59C U67A, the self-cleavage amounted to 0.689.

With A59C U67C, the self-cleavage amounted to 0.806.

With G58U C63G, the self-cleavage is 1.01.

With G58U C63U, the self-cleavage was determined as 1.03.

As for G58U U69G, the self-cleavage stood at 1.03.

With A60C G68U, the self-cleavage is 0.395.

With A60C G68C, the self-cleavage was 0.392.

As for A60G C66G, the self-cleavage was determined as 0.559.

Take A60G C66U: the self-cleavage was found to be 0.818.

As to A60G C66A, the self-cleavage came to 0.582.
